Target: clathrin purified from bovine brain, P49951
Assay: peptide array overlay assay
Conditions: chain shown with the change; for ratio to parent: n = 1, parent: est. 1.0, read off a plot; for other: relative clathrin binding (intensity divided by that of 15mer E): n = 1, parent: est. 0.15, read off a plot

Sequence of clathrin purified from bovine brain, P49951 (P49951 2-1675, chain 1 of 3): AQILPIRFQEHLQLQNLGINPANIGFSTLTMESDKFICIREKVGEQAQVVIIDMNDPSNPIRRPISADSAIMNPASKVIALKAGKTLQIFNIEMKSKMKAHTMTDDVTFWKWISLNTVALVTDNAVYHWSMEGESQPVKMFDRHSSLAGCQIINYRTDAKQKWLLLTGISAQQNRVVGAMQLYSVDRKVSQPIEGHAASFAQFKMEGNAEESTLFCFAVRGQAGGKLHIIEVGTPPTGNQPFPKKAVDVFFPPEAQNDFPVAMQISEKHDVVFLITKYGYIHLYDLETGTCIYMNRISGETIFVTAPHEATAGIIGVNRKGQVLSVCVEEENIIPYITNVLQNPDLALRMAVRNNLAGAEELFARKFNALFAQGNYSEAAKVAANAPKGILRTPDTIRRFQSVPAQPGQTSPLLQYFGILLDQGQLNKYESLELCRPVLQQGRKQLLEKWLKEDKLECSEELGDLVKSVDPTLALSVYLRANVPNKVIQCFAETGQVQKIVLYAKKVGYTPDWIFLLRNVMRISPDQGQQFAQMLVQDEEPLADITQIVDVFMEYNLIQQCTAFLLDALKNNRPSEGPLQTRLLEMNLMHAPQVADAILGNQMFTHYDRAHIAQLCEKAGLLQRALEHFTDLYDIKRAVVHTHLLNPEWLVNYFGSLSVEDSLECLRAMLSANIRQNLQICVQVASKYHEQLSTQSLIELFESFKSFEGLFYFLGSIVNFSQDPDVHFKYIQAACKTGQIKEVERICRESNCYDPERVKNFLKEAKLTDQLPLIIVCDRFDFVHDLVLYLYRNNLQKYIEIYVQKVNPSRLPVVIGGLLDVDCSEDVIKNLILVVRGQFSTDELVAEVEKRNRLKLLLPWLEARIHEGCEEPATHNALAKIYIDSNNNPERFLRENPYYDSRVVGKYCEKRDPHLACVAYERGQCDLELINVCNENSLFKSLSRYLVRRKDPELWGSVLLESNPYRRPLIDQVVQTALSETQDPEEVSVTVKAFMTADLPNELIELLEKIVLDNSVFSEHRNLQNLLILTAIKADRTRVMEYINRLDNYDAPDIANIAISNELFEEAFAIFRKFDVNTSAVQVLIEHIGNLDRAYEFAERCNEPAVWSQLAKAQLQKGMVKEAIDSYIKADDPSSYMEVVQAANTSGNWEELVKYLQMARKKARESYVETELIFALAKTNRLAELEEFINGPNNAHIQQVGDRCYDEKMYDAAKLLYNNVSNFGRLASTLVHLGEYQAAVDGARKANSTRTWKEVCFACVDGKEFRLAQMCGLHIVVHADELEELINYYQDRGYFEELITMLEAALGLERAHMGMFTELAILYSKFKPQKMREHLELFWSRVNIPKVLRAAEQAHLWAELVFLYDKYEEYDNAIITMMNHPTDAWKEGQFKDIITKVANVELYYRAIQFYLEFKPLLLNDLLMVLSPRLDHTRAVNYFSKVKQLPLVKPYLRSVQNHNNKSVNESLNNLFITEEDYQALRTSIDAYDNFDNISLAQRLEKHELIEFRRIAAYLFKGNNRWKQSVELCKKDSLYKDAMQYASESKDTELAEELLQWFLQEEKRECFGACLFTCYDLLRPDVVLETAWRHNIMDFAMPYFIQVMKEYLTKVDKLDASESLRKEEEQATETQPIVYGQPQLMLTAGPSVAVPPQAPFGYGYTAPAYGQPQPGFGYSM
Sequence of clathrin purified from bovine brain, P49951 (chain, as listed by the source, chain 2 of 3): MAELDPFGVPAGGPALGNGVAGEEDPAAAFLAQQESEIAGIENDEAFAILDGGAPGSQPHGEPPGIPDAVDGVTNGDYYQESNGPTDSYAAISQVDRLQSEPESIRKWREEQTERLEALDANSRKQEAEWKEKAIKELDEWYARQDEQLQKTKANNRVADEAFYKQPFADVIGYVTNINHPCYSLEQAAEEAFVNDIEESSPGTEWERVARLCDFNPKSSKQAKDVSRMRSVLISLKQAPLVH
Sequence of clathrin purified from bovine brain, P49951 (chain, as listed by the source, chain 3 of 3): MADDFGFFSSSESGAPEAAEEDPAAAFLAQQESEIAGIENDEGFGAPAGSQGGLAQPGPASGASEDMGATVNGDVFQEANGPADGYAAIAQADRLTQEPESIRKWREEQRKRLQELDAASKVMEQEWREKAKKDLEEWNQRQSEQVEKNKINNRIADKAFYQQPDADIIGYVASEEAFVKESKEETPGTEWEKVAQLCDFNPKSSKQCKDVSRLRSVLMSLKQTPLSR

Binder	ratio to parent	other: relative clathrin binding (intensity divided by that of 15mer E)
SAALASSLANLVGNL [CALM iso3 487-…-501 D488A; D489A; D491A]		0.35
PAKAPLAALNIKAFL [AP180 Site 2 peptide 882-…-896 D885A; D889A; D894A]	0.12	
PAKAPAAAANAKAAA [AP180 Site 2 peptide 882-…-896 D885A; L887A; D889A; L890A; I892A; D894A; F895A; L896A]	0	
SAAAASSAANAVGNA [CALM iso3 487-…-501 D488A; D489A; L490A; D491A; L494A; L497A; L501A]		0
PAKDPAADANAKDAA [AP180 Site 2 peptide 882-…-896 L887A; L890A; I892A; F895A; L896A]	0	

Now from value to binder:

ratio to parent	other: relative clathrin binding (intensity divided by that of 15mer E)	Binder
0		AASSAANAVGNAGAG [CALM iso3 490-…-504 L490A; D491A; L494A; L497A; L501A; I503A]
	0	SDDADSSAANAVGNA [CALM iso3 487-…-501 L490A; L494A; L497A; L501A]
0		PNPFGPVSGAQAQAA [CALM iso3 C-terminus peptide 596-…-610 I607A; F609A; M610A]
1		LASSLANLVGNLGIG [CALM iso3 490-…-504 D491A]
0		ADSSAANAVGNAGAG [CALM iso3 490-…-504 L490A; L494A; L497A; L501A; I503A]

Source: article PMC5004861
